{"source": "patent US20260210971A1", "about": "(Pfizer, published 2026)", "binders": {"B1": {"name": "1D1 1.31 (antibody, human IgG1, kappa, V domains shown)", "VH": "QVQLVQSGAEVKKPGASVKVSCKASGYDFTYYGISWVRQAPGQGLEWMGWISTYNGNTHYARMLQGRVTMTTDTSTRTAYMELRSLRSDDTAVYYCARENYYGSGAYRGGMDVWGQGTTVTVSS", "VL": "EIVLTQSPATLSLSPGERATLSCRASQSVSSYLAWYQQKPGQAPRLLIYDASNRATGIPARFSGSGSGTDFTLTISSLEPEDFAVYYCQQRSNWPWTFGQGTKVEIKR", "notes": "Full length human IgG1 with effector function-null mutations in the Fc, produced in CHO cells; Used biotinylated for staining of monocytes"}}, "key": {"[1]": {"target": "T1, endogenous TL1A of stimulated human peripheral blood (human, UniProt O95150 72-251, limits assumed)", "T1 construct": "also called endogenous soluble TL1A", "T1 sequence (looked up)": "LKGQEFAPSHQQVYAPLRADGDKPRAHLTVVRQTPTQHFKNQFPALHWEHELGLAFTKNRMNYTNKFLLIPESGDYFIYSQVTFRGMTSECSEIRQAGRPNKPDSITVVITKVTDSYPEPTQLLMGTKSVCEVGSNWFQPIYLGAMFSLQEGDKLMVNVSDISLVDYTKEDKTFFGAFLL", "assay": "MSD ligand-binding assay of 1D1 1.31-free sTL1A in plasma of stimulated human blood", "method": "After 24 hours of culture at 37° C., 100 μL of 5% bovine serum albumin in PBS were added and mixed well with the 200 μL of blood cultures to dilute plasma (dilution factor: 1.5). […] IFNγ was measured using the MSD human IFNγ kit (Catalog No. K151AEB-1) following the manufacturer's instructions. […] The following day, plates were washed three times with 150 μL per well of 0.1% Tween 20 in PBS, followed with 150 μL per well of blocking solution (5% bovine serum albumin in PBS), then the plates were incubated at room temperature for 1 hour with orbital shaking (1500 rpm). After the plates were washed as mentioned above, diluted plasma samples were added and incubated at 4° C. overnight. […] TL1A standard curves were generated using recombinant human soluble TL1A. Plates were read following the manufacturer's procedure, standard curve and plasma concentration of the cytokine were calculated with the MSD software."}, "[2]": {"target": "T2, recombinant soluble human TL1A (human, UniProt O95150 71-251)", "T2 construct": "Homotrimer, expressed in HEK293 and purified over HitrapNTA; no tag is described; Used biotinylated in the HTRF assay and in flow cytometry; also called rsTL1A; hTL1A", "T2 sequence": "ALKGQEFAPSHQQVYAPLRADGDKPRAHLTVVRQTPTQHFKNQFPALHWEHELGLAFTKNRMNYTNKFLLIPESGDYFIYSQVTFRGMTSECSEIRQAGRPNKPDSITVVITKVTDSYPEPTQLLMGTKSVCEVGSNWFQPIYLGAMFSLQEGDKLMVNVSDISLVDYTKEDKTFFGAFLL", "assay": "plate ELISA, TL1A coated at 1 µg/mL, detection with anti-human IgG HRP", "method": "(§1) The first 6 rows of each plate were coated with the test article cytokine, and the last two rows were coated with TL1A as a positive control. Rows 1 and 2 were duplicate rows where the test article cytokine was tested for binding to increasing concentrations of its corresponding anti-cytokine positive control antibody. […] The experiment for each cytokine was repeated three times.\n(§2) Plates were incubated overnight at 4° C. After washing the plates three times (3×) with 300 μL PBST using a plate washer (model ELx405; BioTek), plates were blocked by incubating for 1 hour at room temperature with 300 μL of blocking buffer (PBST+0.5% BSA) in each well. […] Plates were then washed 5 times with PBST using the plate washer."}, "[3]": {"target": "T2, recombinant soluble human TL1A", "assay": "plate ELISA, TL1A coated, antibody titrated; plate of TNFSF10", "method": "as §1, §2"}, "[4]": {"target": "T3, recombinant soluble murine TL1A (mouse, UniProt Q5UBV8 75-252)", "T3 construct": "also called murine rsTL1A; mouse TL1A", "T3 chain": "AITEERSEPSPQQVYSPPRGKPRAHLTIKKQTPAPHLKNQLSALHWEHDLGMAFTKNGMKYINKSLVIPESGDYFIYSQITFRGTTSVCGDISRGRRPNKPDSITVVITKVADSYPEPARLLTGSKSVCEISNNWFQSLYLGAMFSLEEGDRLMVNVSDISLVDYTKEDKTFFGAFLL", "assay": "SPR, IgG captured on anti-hIgG, TL1A injected", "from_the_text": "(§3) The antibodies were captured via directly immobilized anti-human IgG (GE Healthcare) onto a carboxymethylated dextran sensor chip surface (CM5) using a Biacore T100 or T200 instrument. Anti-human IgG was immobilized through amine coupling to densities of approximately 4,000-13,000 response units (RU). […] At the end of each cycle, the entire anti-hIgG surface was regenerated by a 30-second pulse of 3M MgCl₂ followed by two consecutive 15-second pulses of PBS-NET. […] All injections were performed at 25° C. at a collection rate of 10 Hz. All sensorgrams were double referenced by using both a control surface and buffer injections. Rate constants were determined by fitting the data to a 1:1 model in Biacore T100, T200 evaluation software v1.0, or BIAevaluation software v4.1.1 and the equation KD=Kd/kₐ.\n(§4) At the highest cytokine concentrations, the dissociation phase was sometimes extended to 60 minutes to achieve at least a 5% decrease in binding signal."}, "[5]": {"target": "T4, endogenous TL1A of stimulated cynomolgus monkey peripheral blood (cynomolgus monkey, UniProt G7PRK8 72-251)", "T4 construct": "also called sTL1A (cynomolgus)", "T4 sequence": "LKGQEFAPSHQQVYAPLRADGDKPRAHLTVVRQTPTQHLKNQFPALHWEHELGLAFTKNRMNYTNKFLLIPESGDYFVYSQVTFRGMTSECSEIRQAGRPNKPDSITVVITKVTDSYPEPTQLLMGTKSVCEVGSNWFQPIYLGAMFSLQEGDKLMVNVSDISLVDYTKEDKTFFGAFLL", "assay": "MSD ligand-binding assay of 1D1 1.31-free soluble TL1A in plasma of cynomolgus whole blood stimulated 24 h with immune complex + IL-12/IL-18 (representative experiment)", "method": "Controls included stimulation without antibody as well as no, or single stimulation controls (only IC or only IL-12/IL-18) in triplicate. After 24 hours of culture at 37° C., 200 μL of 5% bovine serum albumin in PBS were added and mixed well with the 100 μL of blood cultures to dilute plasma (dilution factor: 3). […] IFNγ was measured using the MSD human IFNγ kit (Catalog No. K151AEB-1) following the manufacturer's instructions. […] The following day, plates were washed three times with 150 μL per well of 0.1% Tween 20 in PBS, followed with 150 μL per well of blocking solution (5% bovine serum albumin in PBS), then the plates were incubated at room temperature for 1 hour with orbital shaking (1500 rpm). […] Plates were incubated at room temperature for 2 hours with orbital shaking (1500 rpm) followed by the same plate wash protocol mentioned above. TL1A standard curves were generated using recombinant cynomolgus monkey soluble TL1A. Plates were read following the manufacturer's procedure, standard curve and plasma concentration of the cytokine were calculated using the MSD software per manufacturer's instructions."}, "[6]": {"target": "T2, recombinant soluble human TL1A", "assay": "plate ELISA, TL1A coated, antibody titrated; plate of TNFSF14", "method": "as §1, §2"}, "[7]": {"target": "T2, recombinant soluble human TL1A", "assay": "plate ELISA, TL1A coated, antibody titrated; plate of TNFSF6; plate of TNFSF6", "method": "as §1, §2"}, "[8]": {"target": "T2, recombinant soluble human TL1A", "assay": "plate ELISA, TL1A coated, antibody titrated; plate of TNF α", "method": "as §1, §2"}, "[9]": {"target": "T2, recombinant soluble human TL1A", "assay": "plate ELISA, TL1A coated, antibody titrated; plate of Lymβ 1", "method": "as §1, §2"}, "[10]": {"target": "T5, recombinant soluble rabbit TL1A (rabbit)", "T5 construct": "also called rabbit rsTL1A", "T5 chain": "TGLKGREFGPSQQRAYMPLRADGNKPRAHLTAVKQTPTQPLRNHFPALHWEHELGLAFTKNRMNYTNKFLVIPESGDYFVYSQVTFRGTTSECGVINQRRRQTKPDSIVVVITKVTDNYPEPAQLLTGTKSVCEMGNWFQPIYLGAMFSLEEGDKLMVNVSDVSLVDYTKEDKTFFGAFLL", "assay": "SPR, IgG captured on anti-hIgG, TL1A injected", "from_the_text": "as §3, §4"}, "[11]": {"target": "T6, human TNFSF6 (FAS Ligand) (human, UniProt P48023 134-281, limits assumed)", "T6 sequence (looked up)": "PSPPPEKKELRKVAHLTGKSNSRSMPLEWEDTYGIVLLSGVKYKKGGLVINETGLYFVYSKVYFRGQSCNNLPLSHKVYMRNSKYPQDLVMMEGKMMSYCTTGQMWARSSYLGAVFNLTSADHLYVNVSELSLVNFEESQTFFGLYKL", "assay": "plate ELISA, TNFSF6 coated at 1 µg/mL, detection with anti-human IgG HRP", "method": "as §1, §2"}, "[12]": {"target": "T2, recombinant soluble human TL1A", "assay": "SPR, IgG captured on anti-hIgG, TL1A injected; off rate too slow to measure"}, "[13]": {"target": "T2, recombinant soluble human TL1A", "assay": "flow cytometry, inhibition of the binding of 10 µg/mL biotinylated TL1A to DR3-transfected HEK293 cells"}, "[14]": {"target": "T7, recombinant soluble rat TL1A (rat, UniProt Q8K3Y7 76-252)", "T7 construct": "also called rat rsTL1A", "T7 sequence": "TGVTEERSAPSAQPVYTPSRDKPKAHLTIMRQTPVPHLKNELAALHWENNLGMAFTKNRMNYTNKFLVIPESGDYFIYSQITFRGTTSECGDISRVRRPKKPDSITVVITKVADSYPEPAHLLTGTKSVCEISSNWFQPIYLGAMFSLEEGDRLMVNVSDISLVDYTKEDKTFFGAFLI", "assay": "SPR, IgG captured on anti-hIgG, TL1A injected", "from_the_text": "as §3, §4"}, "[15]": {"target": "T1, endogenous TL1A of stimulated human …", "assay": "cell-based or functional assay"}, "[16]": {"target": "T2, recombinant soluble human TL1A", "assay": "cell-based or functional assay"}}, "data": [{"binder": "B1", "values": [{"measurement": "IC50", "setting": "[1]", "value": 0.00106, "unit": "nM"}, {"measurement": "EC50 (read off the curve)", "setting": "[2]", "value": "~8", "unit": "ng/mL"}, {"measurement": "EC50", "setting": "[3]", "value": 0.008, "unit": "ng/mL"}, {"measurement": "Kd", "setting": "[4]", "value": 1.06, "unit": "nM"}, {"measurement": "koff", "setting": "[4]", "value": 0.00027, "unit": "s⁻¹"}, {"measurement": "kon", "setting": "[4]", "value": 270000, "unit": "M⁻¹ s⁻¹"}, {"measurement": "t1/2", "setting": "[4]", "value": 42.1, "unit": "min"}, {"measurement": "IC50", "setting": "[5]", "value": 0.000169, "unit": "nM"}, {"measurement": "EC50", "setting": "[6]", "value": 0.0084, "unit": "ng/mL"}, {"measurement": "EC50", "setting": "[7]", "value": 0.0085, "unit": "ng/mL"}, {"measurement": "EC50", "setting": "[8]", "value": 0.0082, "unit": "ng/mL"}, {"measurement": "EC50", "setting": "[9]", "value": 0.0063, "unit": "ng/mL"}, {"measurement": "Kd", "setting": "[10]", "value": 0.361, "unit": "nM"}, {"measurement": "koff", "setting": "[10]", "value": 0.00011, "unit": "s⁻¹"}, {"measurement": "kon", "setting": "[10]", "value": 320000, "unit": "M⁻¹ s⁻¹"}, {"measurement": "t1/2", "setting": "[10]", "value": 101, "unit": "min"}, {"measurement": "binding result", "setting": "[11]", "value": "no binding (tested: 25 µg/ml)"}, {"measurement": "Kd", "setting": "[12]", "value": "< 0.1", "unit": "nM"}, {"measurement": "IC50", "setting": "[13]", "value": 18700, "unit": "ng/mL"}, {"measurement": "Kd", "setting": "[14]", "value": 4.86, "unit": "nM"}, {"measurement": "koff", "setting": "[14]", "value": 0.0026, "unit": "s⁻¹"}, {"measurement": "kon", "setting": "[14]", "value": 540000, "unit": "M⁻¹ s⁻¹"}, {"measurement": "t1/2", "setting": "[14]", "value": 4.38, "unit": "min"}, {"measurement": "HWB Assay, average IC50", "setting": "[15]", "value": 0.00167, "unit": "nM"}, {"measurement": "Caspase Assay, average IC50", "setting": "[16]", "value": 0.106, "unit": "nM"}, {"measurement": "NFkB Assay, average IC50", "setting": "[16]", "value": 0.15, "unit": "nM"}]}]}
